“And” between values parts separate entries of the source, which are not always exact repeats. Equal entries are not always repeated.
B1: Δ61-90/C460W/E583M: modified rat olfactory cyclic nucleotide-gated ion channel containing the Δ61-90/C460W/E583M mutation, SEQ ID NO:7 (protein, listed as Rattus norvegicus)
chain: MMTEKSNGVKSSPANNHNHHPPPSIKANGKDDHRAGSRPQSVAADDDTSPELQRLAEMDTPRPDSFLERFRGPELQTVTTHQGDDKGGKDGEGKGTKKKFELFVLDPAGDWYYRWLFVIAMPVLYNWCLLVARACFSDLQRNYFVVWLVLDYFSDTVYIADLIIRLRTGFLEQGLLVKDPKKLRDNYIHTLQFKLDVASIIPTDLIYFAVGIHSPEVRFNRLLHFARMFEFFDRTETRTSYPNIFRISNLVLYILVIIHWNACIYYVISKSIGFGVDTWVYPNITDPEYGYLAREYIYCLYWSTLTLTTIGETPPPVKDEEYLFVIFDFLIGVLIFATIVGNVGSMISNMNATRAEFQAKIDAVKHYMQFRKVSKDMEAKVIKWFDYLWTNKKTVDEREVLKNLPAKLRAEIAINVHLSTLKKVRIFQDWEAGLLVELVLKLRPQVFSPGDYICRKGDIGKEMYIIKEGKLAVVADDGVTQYALLSAGSCFGEISILNIKGSKMGNRRTANIRSLGYSDLFCLSKDDLMEAVTEYPDAKKVLEERGREILMKMGLLDENEVAASMEVDVQEKLEQLETNMDTLYTRFARLLAEYTGAQQKLKQRITVLETKMKQNHEDDYLSDGINTPEPTAAE

Experiments:
[1] = system: PDE activity in GH4C1 cells; assay: Effect of PDE inhibitors, forskolin and VIP on cAMP levels (Ca2+ influx through CNG channels); type: cell-based, rat; settings: basal cAMP; C460W/E583M channels; inhibitor concentration (μM)
Experimental: To further test the utility of this approach, PDE activity in excitable GH4C1 pituitary cells was examined. In all of the experiments shown (See, FIGS. 13-14, and Table 2), 1 μM nimodipine was added at time zero to block Ca^2+ influx though voltage-gated Ca^2+ channels (triggered by membrane depolarization due to Ca^2+ and Na^+ influx through CNG channels). […] FIGS. 13 and 14 each depict experiments done on a single batch of cells. As before, similar results were obtained on three other batches. In the experiments that produced the data shown in Table 2, cAMP concentrations were monitored using Ca^2+ influx through C460W/E583M channels. […] Either 100 μM IBMX or vehicle (-IBMX; control) were added at time zero. Then, 50 μM forskolin were added at 180 seconds d(ΔF/F0)/dt, which is proportional to the Ca^2+ influx rate, was estimated as described in the Examples. Data are provided as mean±standard error. IBMX or vehicle was added at 60 seconds (first arrow in FIG. 13). Either 10 μM forskolin or 100 nM VIP were added at 240 seconds (second arrow in FIG. 13). In the absence of IBMX, large forskolin or VIP-induced increases in Ca^2+ influx were observed. […] This level of basal AC activity was quite different from that observed in HEK-293 cells (See, FIGS. 9 and 10). 1 μM nimodipine was added at time 0 to block endogenous voltage-gated Ca^2+ channels.
To identify the PDE family or families that regulate the local cAMP concentration in GH4C1 cells, cAMP accumulation was monitored in the presence and absence of PDE inhibitors (See, Table 2). Again, the high cAMP affinity C460W/E583M channels were used. PDE inhibitors were added at 60 s. Although the addition of IBMX alone triggered Ca^2+ influx, 10 μM forskolin were added at 240 s as a positive control for CNG channel activity. […] This PDE is likely to have a low Km for cAMP because it is capable of regulating cAMP at concentrations too low for the WT or Δ61-90/C460W/E583M channels to detect. Thus, it is contemplated that a Ca^2+-CaM stimulated PDE (type I) is primarily responsible for controlling basal cAMP signals in GH4C1 cells.
In addition, PDE activity was monitored using Δ61-90/C460W/E583M channels to detect changes in cAMP concentration (See, FIG. 14). PDE inhibitors and forskolin were added as described above. With this construct, it was not possible to observe changes in cAMP concentration due to inhibition of PDE activity alone. […] Inhibitors specific to other PDE types had no effect on the forskolin-induced Ca^2+ influx (data not shown). […] It is contemplated that Ca^2+ influx through the C460W/E583M channels was saturated at cAMP concentrations below the Km for this PDE. Thus, it is contemplated that there are two different PDE types that regulate local cAMP signals in GH4C1 cells: a low Km, 8-methoxymethyl-IBMX sensitive PDE (type I); and a high Km, RO-20-1724-, rolipram-sensitive PDE (type IV).
GH4C1 rat pituitary cells (ATCC) were maintained in 13 mL Ham's F-10 medium (Life Technologies) supplemented with 14.3 mM NaHCO3, 15% donor horse serum (Gemini), and 2.5% fetal bovine serum, pH 6.8, in 75 cm^2 flasks at 37° C. in a humidified atmosphere of 95% air and 5% CO2. Cells were split weekly (1:4) and washed with fresh medium twice weekly. Cells were plated at ˜60% confluence in 100 mm culture dishes twenty-four hours prior to infection with the CNG-channel-encoding adenovirus constructs (multiplicity of infection=50 plaque forming units per cell). Forty-eight hours post-infection cells were detached, resuspended in serum-containing medium, and assayed within 12 hours.
In this Example, experiments conducted to examine the response of excitable GH4C1 pituitary cells to stimulation by either forskolin or the hormone vasoactive intestinal peptide (VIP), in the presence of absence of PDE inhibitors are described. […]

PDE II = target: T1, PDE II (Homo sapiens, UniProt O00408); settings: read-out: IC50, PDE II; cited from earlier work
T1 construct: host or cells: heterologously expressed human PDE; human heart
T1 sequence (O00408 whole entry): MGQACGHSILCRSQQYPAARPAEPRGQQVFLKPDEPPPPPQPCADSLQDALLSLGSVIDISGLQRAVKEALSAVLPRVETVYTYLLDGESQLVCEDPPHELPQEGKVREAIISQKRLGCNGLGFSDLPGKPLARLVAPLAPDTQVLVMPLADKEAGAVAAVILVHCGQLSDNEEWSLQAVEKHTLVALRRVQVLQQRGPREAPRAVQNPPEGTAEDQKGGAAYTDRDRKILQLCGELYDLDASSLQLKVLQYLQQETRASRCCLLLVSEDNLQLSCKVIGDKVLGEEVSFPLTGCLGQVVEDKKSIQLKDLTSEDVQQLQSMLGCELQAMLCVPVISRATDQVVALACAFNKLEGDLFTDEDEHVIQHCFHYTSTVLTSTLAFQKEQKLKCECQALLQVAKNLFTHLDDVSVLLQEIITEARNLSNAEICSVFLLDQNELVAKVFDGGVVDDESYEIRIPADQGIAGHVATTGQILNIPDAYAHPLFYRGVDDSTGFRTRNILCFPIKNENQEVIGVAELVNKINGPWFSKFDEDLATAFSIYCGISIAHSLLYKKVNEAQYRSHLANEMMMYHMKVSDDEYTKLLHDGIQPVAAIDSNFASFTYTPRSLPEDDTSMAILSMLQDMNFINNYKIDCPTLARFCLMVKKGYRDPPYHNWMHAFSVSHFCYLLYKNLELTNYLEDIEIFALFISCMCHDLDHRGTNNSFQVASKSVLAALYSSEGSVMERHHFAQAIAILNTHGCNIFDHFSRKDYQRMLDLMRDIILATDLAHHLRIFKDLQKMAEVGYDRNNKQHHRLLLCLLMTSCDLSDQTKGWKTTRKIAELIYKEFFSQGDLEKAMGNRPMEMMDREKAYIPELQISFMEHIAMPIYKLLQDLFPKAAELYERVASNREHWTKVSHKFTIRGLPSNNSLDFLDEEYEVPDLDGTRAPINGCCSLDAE

PDE III = settings: cited from earlier work
[2] = system: rat olfactory CNG channel α subunit; assay: Excised inside-out patch recordings, cyclic nucleotide dose-response of CNG channel constructs; type: biochemical; settings: for Imax^cGMP/Imax^cAMP: current at saturating cGMP divided by current at saturating cAMP
Experimental: As described in greater detail herein, the effects of modifications to CNG channels were assessed using the Hill equation, I/Imax=[cNMP]^N/([cNMP]^N+K1/2^N), where I/Imax is the fraction of maximal current, cNMP represents cyclic nucleotide, K1/2 is the concentration that gives half-maximal current, and N is the Hill coefficient, an index of cooperativity. I/Imax^cGMP/Imax^cAMP is the current induced by saturating cGMP divided by the current induced by saturating cAMP. Data (mean±standard deviation of three experiments) were obtained from excised membrane patches using standard patch clamp techniques.
To assess the cyclic nucleotide sensitivity of different CNG channel constructs, excised, inside-out patch recordings were made at room temperature (20-21° C.) using an Axopatch-200A patch clamp amplifier (Axon Instruments Inc.). Pipettes were pulled from borosilicate glass and heat polished. Pipettes were lowered onto the cells and gigaohm seals were formed. Patches were excised by shearing cells from the pipette with a jet of liquid. Ionic currents were elicited by 250 ms pulses to membrane potentials of +50 and −50 mV from a holding potential of 0 mV. Current records were sampled at five times the filter setting and stored on an IBM compatible computer. Records were corrected for errors due to series resistance (pipette resistance was 4.1 ±0.1 MΩ). Both the pipette and bath solutions contained (mM): 130 NaCl, 2 HEPES, 0.02 EDTA, and 1 EGTA, pH 7.6. Cyclic nucleotide-induced currents were obtained from the difference between currents in the presence and absence of cyclic nucleotides. Dose response curves for cAMP and cGMP were obtained at +50 and −50 mV in the same patch. The effects of the modifications were assessed using the Hill equation, I/Imax=[cNMP]^N/([cNMP]^N+K1/2^N), where I/Imax is the fraction of maximal current, cNMP represents cyclic nucleotide, K1/2 is the concentration that gives half-maximal current, and N is the Hill coefficient, an index of cooperativity. K1/2 and N for cAMP were 36±5 μM, 10±2 μM, 1.0±0.3 μM, and […] for WT, E583M, C460/E583M, and Δ61-90/C460W/E583M channels, respectively (See, Rich et al., J. Gen. Physiol. [2001], supra).
The cyclic nucleotide sensitivity of the C460W/E583M CNG channel was assessed in excised, inside-out patches as known in the art (See, Rich et al. [2001], supra). K1/2 and N were 1.1±0.3 μM and 2.1±0.4 at +50 mV; and 1.0±0.3 μM and 2.0 ±0.3 at −50 mV (n=11). With these values, the cAMP concentration could be calculated from currents measured in perforated patch experiments (Rich et al. Proc. Natl. Acad. Sci. [2001], supra).

[3] = system: HEK-293 cells expressing CNG channels; assay: Forskolin-induced cAMP accumulation monitored by Ca2+ influx (fura-2) through expressed CNG channels; type: cell-based, human; settings: 100 μM IBMX; forskolin 0-50 μM
Experimental: Next, experiments were conducted to assess the ability of each channel construct to detect increases in local cAMP concentration. Changes in cAMP concentration were detected using fura-2 to monitor Ca^2+ influx through CNG channels, as described in the Examples. Ca^2+ influx induced by different concentrations of forskolin, an AC activator, in the presence of 100 μM IBMX, a nonselective PDE inhibitor was measured. This approach allowed comparisons to be made between the cAMP sensitivities of the different channels to changes in cAMP, regardless of variations in expression levels between experiments. In HEK-293 cells expressing the WT channel, addition of forskolin was followed by a brief delay and an increase in Ca^2+ influx (See, FIG. 7, Panel A). The delay decreased and the rate of Ca^2+ influx increased in a dose-dependent manner. Neither effect was saturated at 50 μM forskolin. In cells expressing the E583M channel, addition of forskolin was also followed by a brief delay and an increase in Ca^2+ influx (FIG. 7, Panel B). As with the WT channel, the delay and the initial rate of Ca^2+ influx were dose-dependent. […] In cells expressing the Δ61-90/C460W/E583M channel, addition of forskolin caused similar increases in Ca^2+ influx as the E583M channel, including saturation of the delay and rate of influx at 20 μM (compare FIG. 7, Panel B with FIG. 7, Panel D). The increased response of the modified channels to forskolin treatment is consistent with the apparent cAMP affinities measured in excised patches in the absence of Ca^2+-CaM (C460W/E583M>E583M˜Δ61-90/C460W/E583>WT channels). There are several factors that may have contributed to the apparent lack of a Ca^2+-CaM effect on the channels.
Briefly, HEK-293 were maintained in MEM (Life Technologies Inc.) supplemented with 26.2 mM NaHCO3, 10% (v/v) fetal bovine serum (Gemini), penicillin (50 μg/mL), and streptomycin ([…]), pH 7.0, at 37° C. in a humidified atmosphere of 95% air and 5% CO2. Cells were plated at ˜60% confluence in 100 mm culture dishes twenty-four hours prior to infection with the CNG-channel-encoding adenovirus constructs (multiplicity of infection=10 plaque forming units per cell). […] Twenty-four hours post-infection cells were detached with phosphate-buffered saline containing 0.03% EDTA, resuspended in serum-containing medium, and assayed within 12 hours.

Row | Molecule | d(ΔF/F0)/dt [1] [s⁻¹] | IC50 (PDE II) [nM] | IC50 (PDE III) [nM] | Imax^cGMP/Imax^cAMP ([2]; +50 mV) | Imax^cGMP/Imax^cAMP ([2]; −50 mV) | current elicited by saturating cGMP as % of the current elicited by saturating cAMP ([2]; excised patches) | forskolin concentration at which delay and rate of Ca2+ influx saturated [3] [µM]
1 | COc1cc2c(cc1OC)-c1c/c(=N\c3c(C)cc(C)cc3C)n(C)c(=O)n1CC2 [Trequinsin] | 0 | 500 to 2000 | 0.3 |  |  |  | 
2 | B1 |  |  |  | 0.16 ± 0.08 | 0.09 ± 0.06 | 16% and < 20% | 20
